From US20120107933A1 (GOVERNMENT OF THE UNITED STATES AS REPRESENTED BY THE …, published 2012) come the findings set out here.

Assay [1] concerns the target human mesothelin on the cell surface (A431/H9 transfectants and human cancer cell lines) (human) (UniProt Q13421). Put plainly: cell-based or functional assay.
The target in assay [2] is rabbit IgG Fc-human mesothelin fusion protein (full-length extracellular domain, 296-581) (rabbit; human) (UniProt Q13421). Put plainly: SPR (Biacore T100), […], kinetic titration. On the technique in general: Surface plasmon resonance follows binding to a sensor surface in real time, without labels.
Sequence of rabbit IgG Fc-human mesothelin fusion protein (full-length extracellular domain, 296-581) (rabbit; human) (Q13421 other isoform, or with tags, fused parts or gaps limits assumed, form in doubt): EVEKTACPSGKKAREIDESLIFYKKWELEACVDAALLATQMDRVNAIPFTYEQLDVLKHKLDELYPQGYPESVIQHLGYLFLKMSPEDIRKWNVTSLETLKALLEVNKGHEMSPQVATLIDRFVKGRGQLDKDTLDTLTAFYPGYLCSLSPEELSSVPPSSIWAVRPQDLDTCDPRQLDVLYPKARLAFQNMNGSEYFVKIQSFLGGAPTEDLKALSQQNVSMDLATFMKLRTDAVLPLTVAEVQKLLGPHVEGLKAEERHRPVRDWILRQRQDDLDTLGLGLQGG
The target in assay [3] is T1, mouse mesothelin (form not stated) (mouse, UniProt Q61468 298-600).
T1 sequence (looked up): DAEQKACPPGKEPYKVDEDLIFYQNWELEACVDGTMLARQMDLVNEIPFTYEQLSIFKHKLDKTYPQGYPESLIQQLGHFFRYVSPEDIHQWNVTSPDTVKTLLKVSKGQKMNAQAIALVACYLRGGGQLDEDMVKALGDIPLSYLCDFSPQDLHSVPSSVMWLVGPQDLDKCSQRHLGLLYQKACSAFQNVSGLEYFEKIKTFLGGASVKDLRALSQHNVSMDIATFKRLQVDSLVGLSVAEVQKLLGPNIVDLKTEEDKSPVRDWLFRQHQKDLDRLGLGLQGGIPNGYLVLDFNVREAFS

Assay [4] has as its target human mesothelin (form not stated) (human, UniProt Q13421 296-581).
The target of assay [5] is T2, rabbit IgG Fc-human mesothelin fusion protein (full-length extracellular domain, 296-581) (rabbit; human, UniProt Q13421 296-581).
T2 sequence (Q13421 other isoform, or with tags, fused parts or gaps limits assumed, form in doubt): as the sequence (Q13421 other isoform, or with tags, fused parts or gaps limits assumed, form in doubt) above
The target in assay [6] is T2, rabbit IgG Fc-human mesothelin fusion …. Put plainly: SPR (Biacore T100), rFc-mesothelin injected over amine-coupled HN1 mAb, kinetic titration.
Protocol: Binding experiments were performed on a BIACORE T100 instrument (GE Healthcare, Piscataway N.J.). […] Hepes buffer (pH-7.4) is used as the running buffer. The rFc-mesothelin (20 μg/mL) was captured on the CM5 sensor chip using a manual injection targeting about 500 RU density. […] Data were fit to a simple 1:1 interaction model, a heterogeneous ligand model or a two state binding model using the global data analysis software provided by GE Healthcare (Biaevaluation 4.1).

Sequence of human mesothelin on the cell surface (A431/H9 transfectants and human cancer cell lines) (human) (Q13421 other isoform, or with tags, fused parts or gaps limits assumed): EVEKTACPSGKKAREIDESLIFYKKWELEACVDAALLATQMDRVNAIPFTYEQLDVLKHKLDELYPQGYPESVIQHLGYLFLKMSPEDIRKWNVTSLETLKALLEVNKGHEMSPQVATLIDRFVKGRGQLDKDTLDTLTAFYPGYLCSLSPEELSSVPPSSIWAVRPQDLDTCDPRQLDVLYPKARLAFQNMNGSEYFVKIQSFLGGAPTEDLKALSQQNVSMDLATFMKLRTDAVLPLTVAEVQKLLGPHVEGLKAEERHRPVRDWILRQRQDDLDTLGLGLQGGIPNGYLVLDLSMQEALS
Sequence of human mesothelin (form not stated) (Q13421 other isoform, or with tags, fused parts or gaps limits assumed): as the sequence (Q13421 other isoform, or with tags, fused parts or gaps limits assumed, form in doubt) above

In assay [1], HA22, an anti-CD22 scFv gave a Cytotoxic Assays (WST), IC50 of cell viability, H9 cells of over 1 µg/mL and a Cytotoxic Assays (WST), IC50 of cell viability, H226 cells of over 1 µg/mL. The Kd is a measure of binding affinity in units of concentration. On to “HN1 scFv immunotoxin (HN1 scFv fused to truncated Pseudomonas exotoxin PE38) (from UniProt P11439 278-389; P11439 406-638)”, for which the Cytotoxic Assays (WST), IC50 of cell viability, H226 cells in assay [1] was 0.013 µg/mL. This molecule came in with a Kd in assay [2] of 100 nM.

B1: HN2 antibody (form not stated) (antibody, V domains shown)
VH: EVQLLESGGGLVQPGGSLRPSCAASGFTFSSYAMSWVRQAPGKGLEWVSAISGSGGSTHYADSVKGRFTISRDNSKNTLYLQMNSLRAEDTAVYYCVRGGALGFDNWGRGTMVTVSS
VL: VLTQPPSVSEAPRQRVTISCSGSTSNIGSNVVNWYQQFPGKPPKVVIYYDDLVASGVSDRFSGSRSGTSASLAISGLQSEDEADYYCSAWDDSLNAWVFGGGTKVTV
B1: the Kd in assay [3] and in assay [4] was about 1.5 nM in each case.

B2: HN1 fully human IgG (IgG gamma1 kappa) (antibody, V domains shown)
VH: QVQLVQSGAEVKRPGASVQVSCRASGYSINTYYMQWVRQAPGAGLEWMGVINPSGVTSYAQKFQGRVTLTNDTSTNTVYMQLNSLTSADTAVYYCARWALWGDFGMDVWGKGTLVTVSS
VL: DIQMTQSPSTLSASIGDRVTITCRASEGIYHWLAWYQQKPGKAPKLLIYKASSLASGAPSRFSGSGSGTDFTLTISSLQPDDFATYYCQQYSNYPLTFGGGTKLEIKR
notes: also called HN1 IgG; HN1 mAb
B2: the “fold better affinity than the scFv molecule” value in assay [5] is over 30 fold. Binding in assay [6] was characterised by a dissociation constant (Kd) of 3 nM.

B3: HN1 antibody (form not stated) (antibody, V domains shown)
VH: B2 VH
VL: DIQMTQSPSTLSASIGDRVTITCRASEGIYHWLAWYQQKPGKAPKLLIYKASSLASGAPSRFSGSGSGTDFTLTISSLQPDDFATYYCQQYSNYPLTFGGGTKLEIK
Regarding B3, the Kd in assay [4] is about 7.5 nM.
